In patent US6992063 (TRUSTEES OF PRINCETON UNIVERSITY, dated 2006):

B4: XIAP-BIR3 (residues 238-358) (other, mammalian, UniProt P98170 238-358, looked up)
chain: RSESDAVSSDRNFPNSTNLPRNPSMADYEARIFTFGTWIYSVNKEQLARAGFYALGEGDKVKCFHCGGGLTDWKPSEDPWEQHAKWYPGCKYLLEQKGQEYINNIHLTHSLEECLVRTTEK
notes: Overexpressed as a GST fusion (pGEX-2T) and purified as in Chai et al. 2000; also called BIR3 domain of XIAP; third BIR domain of XIAP

Key:
[1] = target: T1, XIAP-BIR3 (residues 238-358), P98170
T1 chain: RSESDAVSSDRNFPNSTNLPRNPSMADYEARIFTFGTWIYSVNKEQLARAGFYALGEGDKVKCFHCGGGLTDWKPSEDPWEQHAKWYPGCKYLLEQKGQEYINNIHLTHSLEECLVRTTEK

[2] = target: B4; assay: isothermal titration calorimetry
[3] = target: T2, DIAP1-BIR2 (residues 201-325) (Drosophila, UniProt Q24306 201-325); assay: gel filtration and mass spectroscopic analyses (data not shown)
T2 construct: range 201-325; Expressed as a GST fusion; the GST moiety was removed by thrombin cleavage; also called BIR2 domain of DIAP1; DIAP-BIR2
T2 sequence (looked up): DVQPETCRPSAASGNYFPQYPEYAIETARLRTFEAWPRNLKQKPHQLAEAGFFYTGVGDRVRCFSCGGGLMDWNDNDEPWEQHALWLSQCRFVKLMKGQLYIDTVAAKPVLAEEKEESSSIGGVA
Method: (§1) In vitro interaction assay. […] The mixture was fractionated by gel filtration chromatography (Superdex-200, Pharmacia). The protein-containing fractions were analyzed by reverse phase HPLC and mass spectroscopy for detection of the bound peptide.
Rationale and structure determination.

[4] = target: T3, DIAP1-BIR1 (residues 1-145) (Drosophila, UniProt Q24306 1-145); assay: gel filtration of BIR domain with excess peptide, then reverse phase HPLC and mass spectroscopy
T3 construct: range 1-145; Expressed as a GST fusion; the GST moiety was removed by thrombin cleavage; also called BIR1 domain of DIAP1
T3 sequence (looked up): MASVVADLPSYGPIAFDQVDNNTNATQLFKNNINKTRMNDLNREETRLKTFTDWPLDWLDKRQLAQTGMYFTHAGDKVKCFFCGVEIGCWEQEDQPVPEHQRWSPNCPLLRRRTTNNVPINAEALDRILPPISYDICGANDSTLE
Method: as §1

[5] = target: T2, DIAP1-BIR2 (residues 201-325); assay: isothermal titration calorimetry, 23 °C
Method: Isothermal microcalorimetry titration. All proteins and peptides was prepared in 50 mM sodium phosphate buffer, pH 7.5. The Micro Calorimetry System (Microcal, Amherst, Mass.) was used to perform the ITC measurements for the interaction between DIAP1-BIR2 and various synthetic peptides. The titration data, collected at 23° C., were analyzed using the ORIGIN data analysis software (Microcal Software, Northampton, Mass.).

[6] = target: T4, Smac (Phe33Asp, residues 1-162), monomeric mutant (human, UniProt Q9NR28 56-217, A selenomethionyl form (Met replaced by Se-Met) was used only for phasing. The native crystals hold the plain protein.); assay: reconstituted binary complex, in solution and co-crystallised
T4 construct: Residues 1-162 and position 33 count on mature Smac, not on the precursor entry; Expressed in E. coli from pET-3d for crystallisation; a selenomethionyl form was used for phasing; also called mutant Smac protein; monomeric Smac protein
T4 sequence: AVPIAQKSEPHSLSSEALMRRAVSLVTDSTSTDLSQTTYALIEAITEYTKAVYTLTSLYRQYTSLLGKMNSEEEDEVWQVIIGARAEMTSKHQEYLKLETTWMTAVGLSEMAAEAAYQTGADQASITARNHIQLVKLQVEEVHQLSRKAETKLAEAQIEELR
Method: Crystallization and data collection. […] At 23° C., the reservoir contained 100 mM citrate buffer, pH 5.5, 5% PEG 4000, and 10% isopropanol. Crystals appeared after 1–4 days and reached a maximum size over a period of 1–3 weeks. Both crystals are in the triclinic space group P1 and contain two complexes in each unit cell. […] Diffraction data were primarily collected using an R-AXIS-IV imaging plate detector mounted on a Rigaku 200HB generator. Derivatives were obtained by soaking crystals in reservoir buffer containing 20% glycerol (v/v) and heavy atoms. The concentration and soaking time for mercury thimerosal were 1 mM and 20 hours, respectively. To collect data at −170° C., crystals were equilibrated in a cryoprotectant buffer containing reservoir buffer plus 20% glycerol (v/v) and were flash frozen in a cold nitrogen stream. The high-resolution native data were collected at the NSLS beamline X4A.

B1: caspase-9 (protein)
chain: MDEADRRLLRRCRLRLVEELQVDQLWDALLSRELFRPHMIEDIQRAGSGSRRDQARQLIIDLETRGSQALPLFISCLEDTGQDMLASFLRTNRQAAKLSKPTLENLTPVVLRPEIRKPEVLRPETPRPVDIGSGGFGDVGALESLRGNADLAYILSMEPCGHCLIINNVNFCRESGLRTRTGSNIDCEKLRRRFSSLHFMVEVKGDLTAKKMVLALLELAQQDHGALDCCVVVILSHGCQASHLQFPGAVYGTDGCPVSVEKIVNIFNGTSCPSLGGKPKLFFIQACGGEQKDHGFEVASTSPEDESPGSNPEPDATPFQEGLRTFDQLDAISSLPTPSDIFVSYSTFPGFVSWRDPKSGSWYVETLDDIFEQWAHSEDLQSLLLRVANAVSVKGIYKQMPGCFNFLRKKLFFKTS
caspase-9 activity (cleavage of Ac-LEHD-AFC), direct assay [1]: the inhibition of caspase-9 by the BIR3 domain of XIAP

B2: 10-residue Grim peptide (N-terminal peptide of Grim) (peptide)
peptide: AIAYFIPDQA
binding result [2]: binds
binding result [3]: binds
binding result [4]: no binding

B3: 10-residue Hid peptide (N-terminal peptide of Hid) (peptide)
peptide: AVPFYLPEGG
fold difference in binding affinity between the Hid and Grim peptides [2]: ~100 fold
fold higher binding affinity than the Grim peptide [5]: 6 fold
binding result [4]: no binding

B4
binding result [6]: binds
